Results on two substances are retold here after PMC4807222.

Assay [1] addresses V5-Myc, murine c-Myc mutant 20-AAAI (murine) (UniProt P01108). The experiment in a line: co-IP.
Assay [2] addresses V5-Myc, murine c-Myc mutant 20-PAAA (murine) (UniProt P01108). The experiment in a line: co-IP.
The target of assay [3] is V5-Myc, murine c-Myc mutant 20-PAAI (murine) (UniProt P01108). The assay can be described thus: co-IP.
Assay [4] deals with c-Myc_(1–88) c-Myc-20-PYFY/AAAA-23 mutant (human) (UniProt P01106). The assay can be described thus: SPR. (In general: SPR reads the build-up and loss of mass on a sensor chip optically.)

Chain of Flag-tagged Pin1 (co-immunoprecipitation) (Q13526 whole entry): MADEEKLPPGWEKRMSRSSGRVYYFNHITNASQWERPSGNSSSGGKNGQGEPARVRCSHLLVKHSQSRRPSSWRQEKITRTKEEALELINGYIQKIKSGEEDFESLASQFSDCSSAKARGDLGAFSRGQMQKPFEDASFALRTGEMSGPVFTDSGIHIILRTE
Chain of full-length Pin1 (1–163) (Q13526 whole entry): as above
Chain of V5-Myc, murine c-Myc mutant 20-AAAI (murine) (P01108 whole entry, change not shown): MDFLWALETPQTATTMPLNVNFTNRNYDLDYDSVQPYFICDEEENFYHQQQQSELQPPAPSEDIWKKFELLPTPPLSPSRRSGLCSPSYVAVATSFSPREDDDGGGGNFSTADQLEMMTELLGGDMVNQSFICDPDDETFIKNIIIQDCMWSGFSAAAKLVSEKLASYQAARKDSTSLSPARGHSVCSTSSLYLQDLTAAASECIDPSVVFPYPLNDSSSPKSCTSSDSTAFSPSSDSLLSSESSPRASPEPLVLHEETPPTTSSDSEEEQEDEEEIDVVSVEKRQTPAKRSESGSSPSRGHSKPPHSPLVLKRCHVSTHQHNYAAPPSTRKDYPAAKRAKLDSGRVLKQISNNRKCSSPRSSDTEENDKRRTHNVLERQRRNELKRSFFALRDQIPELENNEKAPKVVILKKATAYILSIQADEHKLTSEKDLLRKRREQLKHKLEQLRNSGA
Chain of V5-Myc, murine c-Myc mutant 20-PAAI (murine) (P01108 whole entry, change not shown): as above
Chain of V5-Myc, murine c-Myc mutant 20-PAAA (murine) (P01108 whole entry, change not shown): as above

“Flag-tagged Pin1 (co-immunoprecipitation) (from UniProt Q13526 1-163) (enzyme)”: the percent reduction of co-immunoprecipitated Pin1 against wild type in assay [1], in assay [2] and in assay [3] was greater than 50% each time.
For orientation: Kd means the free concentration of one partner at which half of the binding sites on the other are occupied at equilibrium, for simple one-to-one binding. With “full-length Pin1 (1–163) (from UniProt Q13526 1-163) (enzyme)”, in assay [4], the Kd came to 15 µM.
